This note sets out measurements from the supplement of paper PMC5998384.

The test system of data set [1] is HeLa Kyoto. The data set is described as follows: thermal stability score vs G1/S (z-score of summed log2 fold changes over temperatures); higher = more thermally stable than in G1/S.
Data set [2] has as its system HeLa Kyoto. The data set is described as follows: melting temperature (median over replicates), in situ; higher = more thermally stable.
In data set [3] the test system is HeLa Kyoto. The data set is described as follows: solubility in G1/S (NP-40 vs SDS abundance) (log2 ratio); higher = more soluble. To be noted: cell cycle stage: G1/S.
Data set [4] concerns HeLa Kyoto. Description: solubility change mitosis vs G1/S (difference of NP-40 vs SDS log2 ratios) (log2 ratio difference); higher = more soluble in mitosis.
Where [5] appears, read: cell cycle stage: early G1 (4.5 h after nocodazole release).
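For melting temperature (median over replicates), in situ in this document: HeLa Kyoto cells synchronized by double thymidine or nocodazole block, proteins quantified by TMT10plex mass spectrometry, three independent biological replicates.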
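For solubility change mitosis vs G1/S (difference of NP-40 vs SDS log2 ratios) in this document: synchronized HeLa Kyoto cells (double thymidine block for G1/S, nocodazole release for mitosis), protein amounts in NP-40 versus SDS lysates quantified by mass spectrometry, three biological replicates.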
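For solubility in G1/S (NP-40 vs SDS abundance) in this document: HeLa Kyoto cells arrested at G1/S by double thymidine block, proteins quantified by TMT10plex mass spectrometry in mild NP-40 versus SDS extracts, three biological replicates.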
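For thermal stability score vs G1/S (z-score of summed log2 fold changes over temperatures) in this document: synchronized HeLa Kyoto cells, proteins quantified by TMT10plex mass spectrometry, three biological replicates, mitosis taken 0.5 h after nocodazole release, G1/S directly after double thymidine block.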

For the sequence “MDRGTLPLAVALLLASCSLSPTSLAETVHCDLQPVGPERGEVTYTTSQVSKGCVAQAPNAILEVHVLFLEFPTGPSQLELTLQASKQNGTWPREVLLVLSVNSSVFLHLQALGIPLHLAYNSSLVTFQEPPGVNTTELPSFPKTQILEWAAERGPITSAAELNDPQSILLRLGQAQGSLSFCMLEASQDMGRTLEWRPRTPALVRGCHLEGVAGHKEAHILRVLPGHSAGPRTVTVKVELSCAPGDLDAVLILQGPPYVSWLIDANHNMQIWTTGEYSFKIFPEKNIRGFKLPDTPQGLLGEARMLNASIVASFVELPLASIVSLHASSCGGRLQTSPAPIQTTPPKDTCSPELLMSLIQTKCADDAMTLVLKKELVAHLKCTITGLTFWDPSCEAEDRGDKFVLRSAYSSCGMQVSASMISNEAVVNILSSSSPQRKKVHCLNMDSLSFQLGLYLSPHFLQASNTIEPGQQSFVQVRVSPSVSEFLLQLDSCHLDLGPEGGTVELIQGRAAKGNCVSLLSPSPEGDPRFSFLLHFYTVPIPKTGTLSCTVALRPKTGSQDQEVHRTVFMRLNIISPDLSGCTSKGLVLPAVLGITFGAFLIGALLTAALWYIYSHTRSPSKREPVVAVAAPASSESSSTNHSIGSTQSTPCSTSSMA [ENG]”, the thermal stability score with HeLa Kyoto [1] (setting [5]) was -1.8; in the data set with HeLa Kyoto [1] (cell cycle stage: mitosis) it was -2.37. In addition, the melting temperature in the data set with HeLa Kyoto [2] (cell cycle stage: G1/S) amounted to 56.1 °C; in the data set on HeLa Kyoto [2] (cell cycle stage: mitosis) it was 55.6 °C. In the data set with HeLa Kyoto [3], the “solubility in G1/S (log2)” value was 0.178. For the same sequence, the “solubility change mitosis (log2)” value with HeLa Kyoto [4] was -0.131.

With “MDRPLSSSAEAEEELEWQVASRRRKAWAKCRSSWQASETEDLSTEATTQDEEEDEEEDLPGAQLPAAGGRGNVPNEKIAIWLKDCRTPLGASLDEQSSSTLKGVLVRNGGSFEDDLSLGAEANHLHESDAQIENCNNILAKERRLQFHQKGRSMNSTGSGKSSGTVSSVSELLELYEEDPEEILYNLGFGRDEPDIASKIPSRFFNSSSFAKGIDIKVFLSAQMQRMEVENPNYALTSRFRQIEVLTTVANAFSSLYSQVSGTPLQRIGSMSSVTSNKETDPPPPLTRSNTANRLMKTLSKLNLCVDKTEKGESSSPSPSAEKGKILNVSVIEESGNKNDQKSQKIMKKKESSSMLATVKEEVSGSSAAVTENADSDRISDEANSNFNQGTENEQSKETQSHESKLGEESGIVESKLDSDFNISSHSELENSSELKSVHISTPEKEPCAPLTIPSIRNIMTQQKDSFEMEEVQSTEGEAPHVPATYQLGLTKSKRDHLLRTASQHSDSSGFAEDSTDCLSLNHLQVQESLQAMGSSADSCDSETTVTSLGEDLATPTAQDQPYFNESEEESLVPLQKGLEKAAAVADKRKSGSQDFPQCNTIENTGTKQSTCSPGDHIIEITEVEEDLFPAETVELLREASAESDVGKSSESEFTQYTTHHILKSLASIEAKCSDMSSENTTGPPSSMDRVNTALQRAQMKVCSLSNQRMGRSLLKSKDLLKQRYLFAKAGYPLRRSQSLPTTLLSPVRVVSSVNVRLSPGKETRCSPPSFTYKYTPEEEQELEKRVMEHDGQSLVKSTIFISPSSVKKEEAPQSEAPRVEECHHGRTPTCSRLAPPPMSQSTCSLHSIHSEWQERPLCEHTRTLSTHSVPNISGATCSAFASPFGCPYSHRHATYPYRVCSVNPPSAIEMQLRRVLHDIRNSLQNLSQYPMMRGPDPAAAPYSTQKSSVLPLYENTFQELQVMRRSLNLFRTQMMDLELAMLRQQTMVYHHMTEEERFEVDQLQGLRNSVRMELQDLELQLEERLLGLEEQLRAVRMPSPFRSSALMGMCGSRSADNLSCPSPLNVMEPVTELMQEQSYLKSELGLGLGEMGFEIPPGESSESVFSQATSESSSVCSGPSHANRRTGVPSTASVGKSKTPLVARKKVFRASVALTPTAPSRTGSVQTPPDLESSEEVDAAEGAPEVVGPKSEVEEGHGKLPSMPAAEEMHKNVEQDELQQVIREIKESIVGEIRREIVSGLLAAVSSSKASNSKQDYH [SSFA2]”, the thermal stability score with HeLa Kyoto [1] (setting [5]) is -1.42; with HeLa Kyoto [1] (cell cycle stage: mitosis) it was -0.947. Also, the melting temperature in the data set with HeLa Kyoto [2] (cell cycle stage: G1/S) was determined as 50.8 °C; in the data set on HeLa Kyoto [2] (cell cycle stage: mitosis), 49.8 °C. Also, the “solubility in G1/S (log2)” value in the data set on HeLa Kyoto [3] was -0.81. The “solubility change mitosis (log2)” value with HeLa Kyoto [4] was 0.802.

Turning to “MDRSKENCISGPVKATAPVGGPKRVLVTQQFPCQNPLPVNSGQAQRVLCPSNSSQRIPLQAQKLVSSHKPVQNQKQKQLQATSVPHPVSRPLNNTQKSKQPLPSAPENNPEEELASKQKNEESKKRQWALEDFEIGRPLGKGKFGNVYLAREKQSKFILALKVLFKAQLEKAGVEHQLRREVEIQSHLRHPNILRLYGYFHDATRVYLILEYAPLGTVYRELQKLSKFDEQRTATYITELANALSYCHSKRVIHRDIKPENLLLGSAGELKIADFGWSVHAPSSRRTTLCGTLDYLPPEMIEGRMHDEKVDLWSLGVLCYEFLVGKPPFEANTYQETYKRISRVEFTFPDFVTEGARDLISRLLKHNPSQRPMLREVLEHPWITANSSKPSNCQNKESASKQS [AURKA]”, the thermal stability score is -0.0408 with HeLa Kyoto [1] (setting [5]) and -0.506 in the data set with HeLa Kyoto [1] (cell cycle stage: mitosis). Also, the melting temperature was 50 °C in the data set on HeLa Kyoto [2] (cell cycle stage: G1/S) and 50.8 °C with HeLa Kyoto [2] (cell cycle stage: mitosis). Moreover, the “solubility in G1/S (log2)” value in the data set with HeLa Kyoto [3] was -0.00432. In addition, the “solubility change mitosis (log2)” value in the data set on HeLa Kyoto [4] is -0.0266.

For the sequence “MDRTCEERPAEDGSDEEDPDSMEAPTRIRDTPEDIVLEAPASGLAFHPARDLLAAGDVDGDVFVFSYSCQEGETKELWSSGHHLKACRAVAFSEDGQKLITVSKDKAIHVLDVEQGQLERRVSKAHGAPINSLLLVDENVLATGDDTGGICLWDQRKEGPLMDMRQHEEYIADMALDPAKKLLLTASGDGCLGIFNIKRRRFELLSEPQSGDLTSVTLMKWGKKVACGSSEGTIYLFNWNGFGATSDRFALRAESIDCMVPVTESLLCTGSTDGVIRAVNILPNRVVGSVGQHTGEPVEELALSHCGRFLASSGHDQRLKFWDMAQLRAVVVDDYRRRKKKGGPLRALSSKTWSTDDFFAGLREEGEDSMAQEEKEETGDDSD [WDR55]”, the thermal stability score was -0.454 with HeLa Kyoto [1] (setting [5]) and -1.73 in the data set on HeLa Kyoto [1] (cell cycle stage: mitosis). Moreover, the figures for the melting temperature with HeLa Kyoto [2] (cell cycle stage: G1/S) and in the data set on HeLa Kyoto [2] (cell cycle stage: mitosis) were 51.3 °C and 51.4 °C, respectively. Moreover, the “solubility in G1/S (log2)” value with HeLa Kyoto [3] is -0.0916. For the same sequence, in the data set on HeLa Kyoto [4], the “solubility change mitosis (log2)” value is -0.0465.
